# Data from the supplement of paper PMC10567573.
# B1: MYL5 (parent)
# chain: DVAGNLDYKALSYVITHGEEKEE
# Variants of: B1
# Assay: protein stability index of a GFP-peptide fusion (GPS, HEK-293T) (PSI 1-6); higher = more stable
# Details: c terminus: native
# 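Note: lentivirally expressed fusions sorted by FACS into six bins by GFP to DsRed ratio, PSI derived from sequencing read proportions per bin multiplied by bin number.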
row,Variant,protein stability index
1,DVAGNLDYKALSYVIQHGEEKEE [T16Q],2.56
2,DVAGNLDYKALSYVIMHGEEKEE [T16M],1.18
3,DVAGNLDYKALSYVIFHGEEKEE [T16F],3.87
4,DVAGNLDYKALSYVINHGEEKEE [T16N],3.03
5,DVAGNLDYKALSYVIWHGEEKEE [T16W],2.48
6,DVAGNLDYKALSYVICHGEEKEE [T16C],1.53
7,DVAGNLDYKALSYVIGHGEEKEE [T16G],3.04
8,DVAGNLDYKALSYVIVHGEEKEE [T16V],2.35
9,DVAGNLDYKALSYVIHHGEEKEE [T16H],2.48
10,DVAGNLDYKALSYVIKHGEEKEE [T16K],2.65
11,DVAGNLDYKALSYVISHGEEKEE [T16S],1.89
12,DVAGNLDYKALSYVIIHGEEKEE [T16I],2.33
13,DVAGNLDYKALSYVILHGEEKEE [T16L],1.27
14,DVAGNLDYKALSYVIDHGEEKEE [T16D],2.01
15,DVAGNLDYKALSYVIEHGEEKEE [T16E],1.99
16,DVAGNLDYKALPYVITHGEEKEE [S12P],2.46
17,DVAGNLDYKALIYVITHGEEKEE [S12I],2.45
18,DVAGNLDYKALLYVITHGEEKEE [S12L],1.77
19,DVAGNLDYKALRYVITHGEEKEE [S12R],1.99
20,DVAGNLDYKALAYVITHGEEKEE [S12A],1.72
21,DVAGNLDYKALGYVITHGEEKEE [S12G],2.54
22,DVAGNLDYKALQYVITHGEEKEE [S12Q],1.7
23,DVAGNLDYKALVYVITHGEEKEE [S12V],1.73
24,DVAGNLDYKALTYVITHGEEKEE [S12T],3.01
25,DVAGNLDYKALEYVITHGEEKEE [S12E],2.13

row,Variant,protein stability index
1,DVAGNLDYKALKYVITHGEEKEE [S12K],2.3
2,DVAGNLDYKALNYVITHGEEKEE [S12N],2.77
3,DVAGNLDYKALSSVITHGEEKEE [Y13S],2.97
4,DVAGNLDYKALSLVITHGEEKEE [Y13L],2.01
5,DVAGNLDYKALSQVITHGEEKEE [Y13Q],2.33
6,DVAGNLDYKALSHVITHGEEKEE [Y13H],2.12
7,DVAGNLDYKALSFVITHGEEKEE [Y13F],1.8
8,DVAGNLDYKALSCVITHGEEKEE [Y13C],2.63
9,DVAGNLDYKALSEVITHGEEKEE [Y13E],2.9
10,DVAGNLDYKALSMVITHGEEKEE [Y13M],2.08
11,DVAGNLDYKALSAVITHGEEKEE [Y13A],2.7
12,DVAGNLDYKALSKVITHGEEKEE [Y13K],2.46
13,DVAGNLDYKALSPVITHGEEKEE [Y13P],3.39
14,DVAGNLDYKALSVVITHGEEKEE [Y13V],1.75
15,DVAGNLDYKALSIVITHGEEKEE [Y13I],2.14
16,DVAGNLDYKALSYVITHGEMKEE [E20M],1.77
17,DVAGNLDYKALSYVITHGERKEE [E20R],2.46
18,DVAGNLDYKALSYVITHGEKKEE [E20K],2.05
19,DVAGNLDYKALSYVITHGEAKEE [E20A],3.08
20,DVAGNLDYKALSYVITHGEFKEE [E20F],2.78
21,DVAGNLDYKALSYVITHGECKEE [E20C],1.47
22,DVAGNLDYKALSYVITHGEHKEE [E20H],2.53
23,DVAGNLDYKALSYVITHGEPKEE [E20P],1.3
24,DVAGNLDYKALSYVITHGEYKEE [E20Y],2.61
25,DVAGNLDYKALSYVITHGENKEE [E20N],2.19

row,Variant,protein stability index
1,DVAGNLDYKALSYVITHGEQKEE [E20Q],2.59
2,DVAGNLDYKALSYVITHGESKEE [E20S],1.26
3,DVAGNLDYKALSYVITHGEVKEE [E20V],1.27
4,DVAGNLDYKALSYVITHGEIKEE [E20I],1.81
5,DVAGNLDYKALSYVITHGEDKEE [E20D],1.91
6,DVAGNLDYKALSYVITHGETKEE [E20T],2.31
7,DVAGNLDYKALSYVITHGEEKCE [E22C],4.34
8,DVAGNLDYKALSYVITHGEEKFE [E22F],4.43
9,DVAGNLDYKALSYVITHGEEKHE [E22H],4.65
10,DVAGNLDYKALSYVITHGEEKIE [E22I],4.14
11,DVAGNLDYKALSYVITHGEEKKE [E22K],5.21
12,DVAGNLDYKALSYVITHGEEKYE [E22Y],4.13
13,DVAGNLDYKALSYVITHGEEKQE [E22Q],4.82
14,DVAGNLDYKALSYVITHGEEKVE [E22V],4.09
15,DVAGNLDYKALSYVITHGEEKRE [E22R],4.24
16,DVAGNLDYKALSYVITHGEEKNE [E22N],4.88
17,DVAGNLDYKALSYVITHGEEKGE [E22G],4.27
18,DVAGNLDYKALSYVITHGEEKLE [E22L],4.25
19,DVAGNLDYKALSYVITHGEEKAE [E22A],4.23
20,DVAGNLDYKALSYVITHGEEKDE [E22D],4.71
21,DVAGNLDYKALSYVITHGEEKWE [E22W],3.59
22,DVAGNLDYKALSYVITHGEEKPE [E22P],4.22
23,DVAGNLDYKALSYVITHGEEKME [E22M],4.25
24,DVAGNLDYKALSYVITHGEEKSE [E22S],4.46
25,DVAGNLDYKAESYVITHGEEKEE [L11E],2.64

row,Variant,protein stability index
1,DVAGNLDYKATSYVITHGEEKEE [L11T],2.81
2,DVAGNLDYKAHSYVITHGEEKEE [L11H],2.75
3,DVAGNLDYKAMSYVITHGEEKEE [L11M],1.15
4,DVAGNLDYKASSYVITHGEEKEE [L11S],1.36
5,DVAGNLDYKACSYVITHGEEKEE [L11C],2.64
6,DVAGNLDYKAISYVITHGEEKEE [L11I],1.93
7,DVAGNLDYKAYSYVITHGEEKEE [L11Y],2.08
8,DVAGNLDYKAKSYVITHGEEKEE [L11K],2.08
9,DVAGNLDYKAGSYVITHGEEKEE [L11G],2.48
10,DVAGNLDYKAVSYVITHGEEKEE [L11V],1.88
11,DVAGNLDYKANSYVITHGEEKEE [L11N],2.23
12,DVAGNLDYKAPSYVITHGEEKEE [L11P],2.45
13,DVAGNLDYKALSYVITHGEEKEL [E23L],2.42
14,DVAGNLDYKALSYVITHGEEKEM [E23M],2.22
15,DVAGNLDYKALSYVITHGEEKEQ [E23Q],4.85
16,DVAGNLDYKALSYVITHGEEKEG [E23G],4.37
17,DVAGNLDYKALSYVITHGEEKEF [E23F],2.69
18,DVAGNLDYKALSYVITHGEEKET [E23T],4.54
19,DVAGNLDYKALSYVITHGEEKEP [E23P],2.26
20,DVAGNLDYKALSYVITHGEEKEY [E23Y],3.97
21,DVAGNLDYKALSYVITHGEEKEH [E23H],2.67
22,DVAGNLDYKALSYVITHGEEKEK [E23K],3.3
